Patent publication US20080138847A1, “Bcl-2 family member and BH-3 only proteins for use in development of peptidomimetics” (priority 2004, published 2008)
One block for each molecule: values may come before it. Where no end group is shown, it is not given here.

Legend:
[1] = molecular target: T1, CED-9 protein (residues 1-251) (Caenorhabditis elegans, UniProt P41958 1-251); assay: binding test of GST-EGL-1 fragments with CED-9 (1-251)
T1 construct: range 1-251
T1 sequence (looked up): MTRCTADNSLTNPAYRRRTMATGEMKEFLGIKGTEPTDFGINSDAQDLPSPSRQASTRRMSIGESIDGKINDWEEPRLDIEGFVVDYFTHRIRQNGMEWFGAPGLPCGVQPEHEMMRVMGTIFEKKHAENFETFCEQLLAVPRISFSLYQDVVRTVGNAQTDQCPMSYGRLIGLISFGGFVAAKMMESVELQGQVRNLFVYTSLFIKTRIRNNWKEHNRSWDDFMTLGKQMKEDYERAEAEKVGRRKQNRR
Procedure: This example describes the characterization of EGL-1/CED-9 interactions. To determine the mechanism of CED-9 recognition by EGL-1, the EGL-1/CED-9 interaction was characterized. Various fragments of the GST-EGL-1 protein were evaluated for their abilities to interact with the CED-9 protein (residues 1-251). […] In contrast, the C-terminal half (residues 45-87 or 45-91) formed a stable complex with CED-9.

[2] = molecular target: T2, CED-9 (construct not stated) (Caenorhabditis elegans, UniProt P41958 1-251, limits assumed); assay: GST-mediated pull-down
T2 construct: Also stands for the worm's own CED-9 in the in vivo rows
T2 sequence (looked up): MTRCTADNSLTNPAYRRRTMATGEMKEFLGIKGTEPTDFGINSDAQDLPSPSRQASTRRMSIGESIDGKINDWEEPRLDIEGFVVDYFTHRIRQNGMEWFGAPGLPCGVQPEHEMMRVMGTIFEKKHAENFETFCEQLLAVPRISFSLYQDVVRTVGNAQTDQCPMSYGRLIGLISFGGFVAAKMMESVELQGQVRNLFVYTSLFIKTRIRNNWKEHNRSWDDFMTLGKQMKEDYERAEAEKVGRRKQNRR
Source text: This example describes the biochemical and functional analysis of EGL-1/CED-9 interactions. To corroborate the structural analysis, mutations on the interface residues of EGL-1 were examined for their potential to weaken or disrupt its binding to CED-9. Various mutant EGL-1 fragments were purified as fusion proteins with glutathione S-transferase (GST) and their interactions with CED-9 were investigated using a GST-mediated pull-down assay. […] Strikingly, substitution of Gly55 by a negatively charged glutamate residue was not sufficient to abolish interaction with CED-9.

[3] = molecular target: T1, CED-9 protein (residues 1-251); assay: EGL-1 missense mutants tested for interaction with CED-9 (Example 1)
[4] = molecular target: T3, CED-9 (residues 68-251) (Caenorhabditis elegans, UniProt P41958); assay: isothermal titration calorimetry (ITC) of EGL-1 fragments binding to CED-9; set-up: species or system C. elegans; details: binding to CED-9 (residues 68-251), read-out: dissociation constant
T3 construct: made in house
T3 sequence (P41958 68-251): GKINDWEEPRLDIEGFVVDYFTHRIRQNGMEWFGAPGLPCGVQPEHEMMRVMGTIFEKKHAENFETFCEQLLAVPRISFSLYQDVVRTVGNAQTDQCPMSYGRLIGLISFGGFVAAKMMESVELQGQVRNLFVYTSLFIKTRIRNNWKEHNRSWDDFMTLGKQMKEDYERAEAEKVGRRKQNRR
Source text: The EGL-1/CED-9 complex adopts a compact, globular fold, resembling a single folding unit. CED-9 comprises 7 α helices, with the central hydrophobic helix α5 surrounded by 6 helices and several surface loops. A 27-amino acid fragment of the EGL-1 protein (residues 47-73) forms a single amphipathic α helix, packing against CED-9 helices α2, α3, α4, α5, and α7 over an extended hydrophobic surface cleft. Residues N- or C-terminal to the EGL-1 helix were disordered in the crystals and thus are not involved in binding to CED-9.

[5] = test system: ced-1 (e1735); egl-1 (n1084 n3082) animals; assay: in vivo cell killing: cell corpses in four-fold transgenic embryos after heat-shock expression of EGL-1 fragments; set-up: species or system C. elegans; details: anterior head region of four-fold transgenic embryos; heat-shock promoter expression
Procedure: In this example, the ability of EGL-1 mutants to disrupt the CED-4/CED-9 complex was tested. […] To examine this scenario, constructs were injected into ced-1 (e1735); egl-1 (n1084 n3082) animals that direct expression of various EGL-1 fragments under the control of the C. elegans heat-shock promoters. Cell corpses were scored in the anterior head region of four-fold transgenic embryos after the heat-shock treatment.

- binding result [1]: no binding
B1: GST-EGL-1 N-terminal half (residues 1-45) (other, UniProt O61667 16-60, looked up)
chain: {GST}-MSNVFDVQSSVFYNEKNMFYSSSQDFSSCEDSSQFADDSGFFDDS
notes: GST placed at the N-terminus by the printed name 'GST-EGL-1'; also called N-terminal half (residues 1-45) of EGL-1; not shown: glutathione S-transferase (GST) fusion partner

- binding result [2]: no binding
- binding result [3]: no binding
B2: GST-EGL-1 fragment double mutant (mut2, G55E/F65A) (other, UniProt O61667 60-102, looked up)
chain: SEISSIGYEIESKLAAMCDDADAQMMSYSAHASDRSLFHRLLD
modifications: also: GST fusion in pull-down, placement and linker not given here
notes: GST fusion in the pull-down; also called EGL-1 (G55E/F65A); EGL-1 double mutant; not shown: glutathione S-transferase (GST) fusion partner

- binding result [2]: no binding
B3: GST-EGL-1 fragment quadruple mutant (mut4, G55E/L58A/F65A/M69A) (other, UniProt O61667 60-102, looked up)
chain: SEISSIGYEIESKAAAMCDDADAQAMSYSAHASDRSLFHRLLD
modifications: also: GST fusion in pull-down, placement and linker not given here
notes: GST fusion in the pull-down; not shown: glutathione S-transferase (GST) fusion partner

- Kd [4]: 6.7 nM
B4: full-length EGL-1 protein: full-length pro-apoptotic BH-3 Only protein EGL-1 of C. elegans (protein, UniProt O61667 1-106, looked up)
chain: MLMLTFASTSSDLLPMSNVFDVQSSVFYNEKNMFYSSSQDFSSCEDSSQFADDSGFFDDSEISSIGYEIGSKLAAMCDDFDAQMMSYSAHASDRSLFHRLLDFFAF
modifications: full-length
notes: full-length pro-apoptotic BH-3 Only protein EGL-1 of C. elegans
- cell killing (cell corpses induced) [5]: induced robust cell killing
